The results in this text go back to publication doi:10.1101/356592 (bioRxiv, 2018).

B1: His6-tagged Dmc1 (natural protein, Saccharomyces cerevisiae, UniProt P25453 1-334, looked up)
chain: MSVTGTEIDSDTAKNILSVDELQNYGINASDLQKLKSGGIYTVNTVLSTTRRHLCKIKGLSEVKVEKIKEAAGKIIQVGFIPATVQLDIRQRVYSLSTGSKQLDSILGGGIMTMSITEVFGEFRCGKTQMSHTLCVTTQLPREMGGGEGKVAYIDTEGTFRPERIKQIAEGYELDPESCLANVSYARALNSEHQMELVEQLGEELSSGDYRLIVVDSIMANFRVDYCGRGELSERQQKLNQHLFKLNRLAEEFNVAVFLTNQVQSDPGASALFASADGRKPIGGHVLAHASATRILLRKGRGDERVAKLQDSPDMPEKECVYVIGEKGITDSSD

Experiment [1] has as its target Replication protein A (RPA) (Saccharomyces cerevisiae, UniProt P22336 1-621; P26754 1-273; P26755 1-122). Put plainly: pull-down.
The experiment “His6-tagged Dmc1” deals with B1. Put plainly: co-IP.

Replication protein A (RPA), sequence (P22336 whole entry, chain 1 of 3): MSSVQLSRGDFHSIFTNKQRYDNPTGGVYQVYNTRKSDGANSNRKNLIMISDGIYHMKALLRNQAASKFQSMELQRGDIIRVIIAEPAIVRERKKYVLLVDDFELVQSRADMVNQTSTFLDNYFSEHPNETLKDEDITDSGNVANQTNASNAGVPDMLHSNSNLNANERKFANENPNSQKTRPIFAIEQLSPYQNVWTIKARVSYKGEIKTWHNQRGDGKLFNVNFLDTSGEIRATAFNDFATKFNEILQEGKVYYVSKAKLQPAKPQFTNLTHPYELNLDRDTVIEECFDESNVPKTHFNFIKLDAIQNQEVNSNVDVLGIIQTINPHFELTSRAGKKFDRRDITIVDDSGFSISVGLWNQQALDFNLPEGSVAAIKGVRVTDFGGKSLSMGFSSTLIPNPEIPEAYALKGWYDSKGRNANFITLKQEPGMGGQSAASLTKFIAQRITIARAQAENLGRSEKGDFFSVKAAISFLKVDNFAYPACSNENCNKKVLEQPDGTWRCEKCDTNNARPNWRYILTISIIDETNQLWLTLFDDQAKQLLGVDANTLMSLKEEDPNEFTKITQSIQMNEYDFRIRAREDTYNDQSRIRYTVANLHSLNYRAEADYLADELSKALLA
Replication protein A (RPA), sequence (P26754 whole entry, chain 2 of 3): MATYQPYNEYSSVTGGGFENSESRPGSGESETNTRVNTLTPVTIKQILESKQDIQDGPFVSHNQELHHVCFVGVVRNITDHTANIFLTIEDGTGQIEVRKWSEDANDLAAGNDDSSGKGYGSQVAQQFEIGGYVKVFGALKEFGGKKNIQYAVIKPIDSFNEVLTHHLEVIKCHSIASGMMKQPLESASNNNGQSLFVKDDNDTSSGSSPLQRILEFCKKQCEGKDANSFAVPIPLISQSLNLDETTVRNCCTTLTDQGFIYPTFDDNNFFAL
Replication protein A (RPA), sequence (P26755 whole entry, chain 3 of 3): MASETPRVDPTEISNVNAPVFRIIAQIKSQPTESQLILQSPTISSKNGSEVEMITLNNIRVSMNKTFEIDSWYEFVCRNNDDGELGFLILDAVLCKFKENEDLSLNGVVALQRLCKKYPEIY

As to B1, the binding result in experiment [1] is given as “binds”.

B2: His6-tagged Mei5-Sae3 heterodimer (complex, Saccharomyces cerevisiae)
chain 1: MHNQEEWLDKDKTLVNEEENTCINHSYTKKDTNNYRVGKSGIKDLKKPTNQKEIAIKNRELTKQLTLLRQENNHLQQACKILSENKIIENRKSIEKWRTICEMELSFILNSTLIKINRMGGYKDFLEKEMEAKKRRLEYQIDNGMEDQICEIKESDDFRQLSEVEKQEWESQMNEQLKELEKKKIAELEKLNKVLHDSEGKDFGMAELCTRLKLDYSLIFPQ
chain 2: MNYLETQLNKKQKQIQEYESMNGNLIKMFEQLSKEKKNDETPKKISSTYIKELKEYNELRDAGLRLAQIIADEKQCKIKDVFEEIGYSMKD
Regarding B2, the binding result (in experiment [1]; in the experiment with His6-tagged Dmc1) was “binds” throughout.
